Source: patent US20120172295A1 (INDIANA UNIVERSITY RESEARCH AND TECHNOLOGY, published 2012)
Like-named read-outs stand apart in the source and are kept apart here. Starred links: 1 amine or outer side, 2 acyl side, 3 side chain; linkers in the order of their positions; H or OH if unused. Non-standard residues stand in square brackets, D forms with d. Groups on a side chain read outwards from the residue. No end group written: not given here. *: point of attachment. Dab(Ac) = acetyldiaminobutanoic acid, CC(=O)NCC[C@H](N[*:1])C(=O)[*:2]; C(Acm) = acetamidomethyl-cysteine, CC(=O)NCSC[C@H](N[*:1])C(=O)[*:2]; Orn(Ac) = acetylornithine, CC(=O)NCCC[C@H](N[*:1])C(=O)[*:2]; Isobutyryl(2-imidazol-4-yl) = CC(C)(C(=O)*)c1c[nH]cn1; γGlu = O=C(O)[C@H](CCC(=O)[*:2])N[*:1]; Dap(CONH2) = NC(=O)NC[C@H](N)C(=O)O; Stearoyl = CCCCCCCCCCCCCCCCCC(=O)*; Palmitoyl = CCCCCCCCCCCCCCCC(=O)*; Met(O) = CS(=O)CC[C@H](N)C(=O)O; Myristoyl = CCCCCCCCCCCCCC(=O)*; Nle = CCCC[C@H](N)C(=O)O; DMIA = not defined here; Dab = NCC[C@H](N)C(=O)O; PEG = not defined here; Aib = CC(C)(N)C(=O)O; βAla = NCCC(=O)O

How the values were obtained:
Assay in all cases: cell-based or functional assay
GLP-1 receptor [1] = biological target: T1, GLP-1 receptor (UniProt P43220 24-463, limits assumed)
glucagon receptor [2] = biological target: T2, glucagon receptor (UniProt P47871 26-477, limits assumed)
GLP-1 receptor [3] = biological target: T1, GLP-1 receptor; remark: listed apart in the source
glucagon receptor [4] = biological target: T2, glucagon receptor; remark: listed apart in the source
glucagon receptor [5] = biological target: T2, glucagon receptor; remark: listed apart in the source
GLP-1 receptor [6] = biological target: T1, GLP-1 receptor; remark: listed apart in the source
glucagon receptor [7] = biological target: T2, glucagon receptor; remark: listed apart in the source
GLP-1 receptor [8] = biological target: T1, GLP-1 receptor; remark: listed apart in the source

T2 sequence (P47871 26-477 limits assumed): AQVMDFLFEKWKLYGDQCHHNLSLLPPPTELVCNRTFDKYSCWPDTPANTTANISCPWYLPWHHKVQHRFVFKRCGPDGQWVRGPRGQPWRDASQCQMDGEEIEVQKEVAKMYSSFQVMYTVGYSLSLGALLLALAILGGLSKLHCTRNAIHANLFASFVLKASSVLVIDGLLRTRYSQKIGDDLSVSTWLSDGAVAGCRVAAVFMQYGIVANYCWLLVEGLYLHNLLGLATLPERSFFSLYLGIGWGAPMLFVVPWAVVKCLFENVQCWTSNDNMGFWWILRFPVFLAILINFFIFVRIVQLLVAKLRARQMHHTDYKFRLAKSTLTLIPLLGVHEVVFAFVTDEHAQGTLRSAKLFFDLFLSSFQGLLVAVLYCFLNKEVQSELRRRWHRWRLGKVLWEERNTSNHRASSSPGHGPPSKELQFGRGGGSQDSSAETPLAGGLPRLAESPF

HSQGTFTSDYSKYLDERRAKDFVQWLMDGGPSSGAPPPS-NH2 [E16K20-MDGG30 PSSGAPPPS (SEQ ID NO: 526)]
EC50 (GLP-1 receptor [1]): 0.02 nM

H[Aib]QGTFTSDK([γGlu-γGlu-Palmitoyl])SKYLD[Aib]RRAQDFVC(PEG 40 kDa)WLMNT-NH2 [Peptide 80* (SEQ ID NO: 576)]
EC50 (glucagon receptor [2]): 0.108 nM

H[Aib]QGTFTSDK([Leu-Leu-Palmitoyl])SKYLD[Aib]RRAQDFVQWLMNT-NH2 [Peptide 86 (SEQ ID NO: 568)]
EC50 (GLP-1 receptor [3]): 0.006 nM

HS[C(Acm)]GTFTSDYSKYLDTRRAAEFVAWL[Nle]DE [Peptide J backbone, C(Acm) at position 3 (SEQ ID NO: 594)]
% activity (glucagon receptor [4]): 33% | EC50 (glucagon receptor [4]): 0.18 nM

HXQGTFTSDKSKYLDERRAKDFVQWLMNT (d-Ser at 2; Lys 10-C14 acyl; C-terminal amide) [dS2, E16/K20, K10(C14) Gluc Amide]
% Activity of Glucagon (glucagon receptor [5]): 21.9% | EC50 (glucagon receptor [5]): 0.155 nM | % Activity of GLP-1 (GLP-1 receptor [6]): 6.3% | EC50 (GLP-1 receptor [6]): 0.128 nM

B1: AIB2, AIB16, K10(C14) Gluc Amide (peptide)
peptide: H[Aib]QGTFTSDK(Myristoyl)SKYLD[Aib]RRAQDFVQWLMNT-NH2
modifications: N-terminus assumed
SMILES: CCCCCCCCCCCCCC(=O)NCCCC[C@H](NC(=O)[C@H](CC(=O)O)NC(=O)[C@H](CO)NC(=O)[C@@H](NC(=O)[C@H](Cc1ccccc1)NC(=O)[C@@H](NC(=O)CNC(=O)[C@H](CCC(N)=O)NC(=O)C(C)(C)NC(=O)[C@@H](N)Cc1c[nH]cn1)[C@@H](C)O)[C@@H](C)O)C(=O)N[C@@H](CO)C(=O)N[C@@H](CCCCN)C(=O)N[C@@H](Cc1ccc(O)cc1)C(=O)N[C@@H](CC(C)C)C(=O)N[C@@H](CC(=O)O)C(=O)NC(C)(C)C(=O)N[C@@H](CCCNC(=N)N)C(=O)N[C@@H](CCCNC(=N)N)C(=O)N[C@@H](C)C(=O)N[C@@H](CCC(N)=O)C(=O)N[C@@H](CC(=O)O)C(=O)N[C@@H](Cc1ccccc1)C(=O)N[C@H](C(=O)N[C@@H](CCC(N)=O)C(=O)N[C@@H](Cc1c[nH]c2ccccc12)C(=O)N[C@@H](CC(C)C)C(=O)N[C@@H](CCSC)C(=O)N[C@@H](CC(N)=O)C(=O)N[C@H](C(N)=O)[C@@H](C)O)C(C)C
% Activity of Glucagon (glucagon receptor [5]): 77.3% | EC50 (glucagon receptor [5]): 0.044 nM | % Activity of GLP-1 (GLP-1 receptor [6]): 33.3% | EC50 (GLP-1 receptor [6]): 0.024 nM

[DMIA]SQGTFTSDK(Myristoyl)SKYLDERRAKDFVQWLMNT-NH2 (reading uncertain) [DMIA1, K10(C14), [E16/K20]-Gluc Amide]
% Activity of Glucagon (glucagon receptor [5]): 204% | % Activity of GLP-1 (GLP-1 receptor [6]): 30% | EC50 (GLP-1 receptor [6]): 0.05 nM

HS[Dap(CONH2)]GTFTSDYSKYLDTRRAAEFVAWL[Nle]DE [Peptide J backbone, Dap(urea) at position 3 (SEQ ID NO: 596)]
% activity (glucagon receptor [4]): 13% | EC50 (glucagon receptor [4]): 0.48 nM

HSQGTFTSDYSKYLD[Aib]RRAADFVAWLMDE [Peptide K backbone, Q at position 3 (SEQ ID NO: 600)]
% activity (glucagon receptor [4]): 15%

HAEGTFTSDVSSYLEGQAAKEFIAWLVKGG-NH2 [GLP-1-VKGG30 (SEQ ID NO: 527)]
EC50 (GLP-1 receptor [1]): 0.025 nM | Relative Potency (%) (GLP-1 receptor [1]): 100%

HXQGTFTSDKSKYLDERRAKDFVQWLMNT (d-Ser at 2; Lys 10-C18 acyl; C-terminal amide) [dS2, E16/K20, K10(C18) Gluc Amide]
% Activity of Glucagon (glucagon receptor [5]): 196% | % Activity of GLP-1 (GLP-1 receptor [6]): 60% | EC50 (GLP-1 receptor [6]): 0.025 nM

H[Aib]QGTFTSDK([Ala-Ala-Palmitoyl])SKYLD[Aib]RRAQDFVC(PEG 40 kDa)WLMNT-NH2 [Peptide 79* (SEQ ID NO: 575)]
EC50 (glucagon receptor [2]): 0.102 nM

HXQGTFTSDKSKYLDERRAKDFVQWLMNT (d-Ser at 2; Lys 10-C16 acyl; C-terminal amide) [dS2, E16/K20, K10(C16) Gluc Amide]
% Activity of Glucagon (glucagon receptor [5]): 44.7% | EC50 (glucagon receptor [5]): 0.076 nM | % Activity of GLP-1 (GLP-1 receptor [6]): 19.5% | EC50 (GLP-1 receptor [6]): 0.041 nM

H[Aib]QGTFTSDK(Palmitoyl)SKYLD[Aib]RRAQDFVQWLMNT-NH2 [AIB2, AIB16, K10(C16) Gluc Amide (SEQ ID NO: 611)]
% Activity of Glucagon (glucagon receptor [5]): 170% | EC50 (glucagon receptor [5]): 0.02 nM | % Activity of GLP-1 (GLP-1 receptor [6]): 72.3%

B2: AIB2, AIB16, K10(C18) Gluc Amide (peptide)
peptide: H[Aib]QGTFTSDK(Stearoyl)SKYLD[Aib]RRAQDFVQWLMNT-NH2
modifications: N-terminus assumed
SMILES: CCCCCCCCCCCCCCCCCC(=O)NCCCC[C@H](NC(=O)[C@H](CC(=O)O)NC(=O)[C@H](CO)NC(=O)[C@@H](NC(=O)[C@H](Cc1ccccc1)NC(=O)[C@@H](NC(=O)CNC(=O)[C@H](CCC(N)=O)NC(=O)C(C)(C)NC(=O)[C@@H](N)Cc1c[nH]cn1)[C@@H](C)O)[C@@H](C)O)C(=O)N[C@@H](CO)C(=O)N[C@@H](CCCCN)C(=O)N[C@@H](Cc1ccc(O)cc1)C(=O)N[C@@H](CC(C)C)C(=O)N[C@@H](CC(=O)O)C(=O)NC(C)(C)C(=O)N[C@@H](CCCNC(=N)N)C(=O)N[C@@H](CCCNC(=N)N)C(=O)N[C@@H](C)C(=O)N[C@@H](CCC(N)=O)C(=O)N[C@@H](CC(=O)O)C(=O)N[C@@H](Cc1ccccc1)C(=O)N[C@H](C(=O)N[C@@H](CCC(N)=O)C(=O)N[C@@H](Cc1c[nH]c2ccccc12)C(=O)N[C@@H](CC(C)C)C(=O)N[C@@H](CCSC)C(=O)N[C@@H](CC(N)=O)C(=O)N[C@H](C(N)=O)[C@@H](C)O)C(C)C
% Activity of Glucagon (glucagon receptor [5]): 212% | EC50 (glucagon receptor [5]): 0.016 nM | % Activity of GLP-1 (GLP-1 receptor [6]): 88.9% | EC50 (GLP-1 receptor [6]): 0.009 nM

HSQGTFTSDYSKYLDTRRAAEFVAWL[Nle]DE [Peptide J backbone, Q at position 3 (SEQ ID NO: 593)]
% activity (glucagon receptor [4]): 25%

B3: Peptide 83 (SEQ ID NO: 565) (peptide)
peptide: H[Aib]QGTFTSDK([γGlu-γGlu-Palmitoyl])SKYLD[Aib]RRAQDFVQWLMNT-NH2
modifications: N-terminus assumed
SMILES: CCCCCCCCCCCCCCCC(=O)N[C@@H](CCC(=O)N[C@@H](CCC(=O)NCCCC[C@H](NC(=O)[C@H](CC(=O)O)NC(=O)[C@H](CO)NC(=O)[C@@H](NC(=O)[C@H](Cc1ccccc1)NC(=O)[C@@H](NC(=O)CNC(=O)[C@H](CCC(N)=O)NC(=O)C(C)(C)NC(=O)[C@@H](N)Cc1c[nH]cn1)[C@@H](C)O)[C@@H](C)O)C(=O)N[C@@H](CO)C(=O)N[C@@H](CCCCN)C(=O)N[C@@H](Cc1ccc(O)cc1)C(=O)N[C@@H](CC(C)C)C(=O)N[C@@H](CC(=O)O)C(=O)NC(C)(C)C(=O)N[C@@H](CCCNC(=N)N)C(=O)N[C@@H](CCCNC(=N)N)C(=O)N[C@@H](C)C(=O)N[C@@H](CCC(N)=O)C(=O)N[C@@H](CC(=O)O)C(=O)N[C@@H](Cc1ccccc1)C(=O)N[C@H](C(=O)N[C@@H](CCC(N)=O)C(=O)N[C@@H](Cc1c[nH]c2ccccc12)C(=O)N[C@@H](CC(C)C)C(=O)N[C@@H](CCSC)C(=O)N[C@@H](CC(N)=O)C(=O)N[C@H](C(N)=O)[C@@H](C)O)C(C)C)C(=O)O)C(=O)O
EC50 (GLP-1 receptor [3]): 0.043 nM

[Isobutyryl(2-imidazol-4-yl)]SQGTFTSDYSKYLDEQAAKEFIC(PEG)WLMNT-NH2 (reading uncertain) [Chimera DMIA1, Cys24 (SEQ ID NO: 519), parent w/PEG]
% Potency Relative to Native (glucagon receptor [7]): 6.9% | % Potency Relative to Native (GLP-1 receptor [8]): 19.3%

H[Aib]QGTFTSDK([βAla-βAla-Palmitoyl])SKYLD[Aib]RRAQDFVQWLMNT-NH2 [Peptide 84 (SEQ ID NO: 566)]
EC50 (GLP-1 receptor [3]): 0.004 nM

HS[Dab(Ac)]GTFTSDYSKYLDTRRAAEFVAWL[Nle]DE [Peptide J backbone, Dab(Ac) at position 3 (SEQ ID NO: 595)]
% activity (glucagon receptor [4]): 19% | EC50 (glucagon receptor [4]): 0.31 nM

HS[Met(O)]GTFTSDYSKYLDTRRAAEFVAWL[Nle]DE [Peptide J backbone, M(O) at position 3 (SEQ ID NO: 598)]
% activity (glucagon receptor [4]): 7% | EC50 (glucagon receptor [4]): 0.91 nM

HS[Dab](Ac)GTFTSDYSKYLD[Aib]RRAADFVAWLMDE [Peptide K backbone, Dab(Ac) at position 3 (SEQ ID NO: 601)]
% activity (glucagon receptor [4]): 86% | EC50 (glucagon receptor [4]): 0.07 nM

XSQGTFTSDKSKYLDERRAKDFVQWLMNT (DMIA at 1; Lys 10-C16 acyl; [E16/K20]; C-terminal amide) [DMIA1, K10(C16), [E16/K20]-Gluc Amide]
% Activity of Glucagon (glucagon receptor [5]): 392% | % Activity of GLP-1 (GLP-1 receptor [6]): 100%

XSQGTFTSDKSKYLDERRAKDFVQWLMNT (DMIA at 1; Lys 10-C18 acyl; [E16/K20]; C-terminal amide) [DMIA1, K10(C18), [E16/K20]-Gluc Amide]
% Activity of Glucagon (glucagon receptor [5]): 42.3% | % Activity of GLP-1 (GLP-1 receptor [6]): 136% | EC50 (GLP-1 receptor [6]): 0.011 nM

HSQGTFTSDYSKYLDSRRAQDFVQWLMNGGPSSGAPPPS-NH2 [MNGG30 PSSGAPPPS (SEQ ID NO: 522)]
EC50 (GLP-1 receptor [1]): 0.31 nM | Relative Potency (%) (GLP-1 receptor [1]): 8%

HS[Orn(Ac)]GTFTSDYSKYLDTRRAAEFVAWL[Nle]DE [Peptide J backbone, Orn(Ac) at position 3 (SEQ ID NO: 599)]
% activity (glucagon receptor [4]): 7% | EC50 (glucagon receptor [4]): 0.92 nM
